In experiment [1] the target is T1, SARS-CoV-2 Nucleocapsid-Fc fusion protein (SARS-CoV-2, UniProt P0DTC9 1-419).
T1 construct: also called Fc-tagged N-protein
As to the kind of experiment: CoVHH-N1.

Experiment [2] addresses T1, SARS-CoV-2 Nucleocapsid-Fc fusion ….
The target is the same in experiment [3]. As to the kind of experiment: CoVHH-N2.

Like-named read-outs stand apart in the source and are kept apart here.

These results are taken from patent publication US20240117012A1 (KAO, published 2024).

Broadly, the koff is a measure of how fast the partners let go of each other. Higher therefore signals fast dissociation. The term kon denotes the second-order rate constant of association. Low readings indicate slow association, high ones fast association. Broadly, the Kd is the concentration at which binding is half-saturated. Read a low Kd as higher affinity.

B1: His-tagged CoVHH-N1 (VHH)
VHH: EVQLVESGGAVVQPGGSLRLSCEASGFPFTKFWMYWVRRAPGKGLEWVAFIDTTGTITNYASSVKGRFTISRDDARNMVYLQMNDLRPEDTAIYYCATGPPGSTWVVDFHSWGQGTQVTVSS
notes: also called CoVHH-N1 (His-tagged)
In the case of B1, in experiment [1], the koff is 0.0017 s⁻¹ and the kon turned out to be 3.02e+06 M⁻¹ s⁻¹. Moreover, binding in experiment [2] was put at a Kd of 0.564 nM.

B2: His-tagged CoVHH-N2 (VHH)
VHH: EVQLVESGGGSVQAGGSLTLSCAASGFTFDDHAVGWFRQAPGKGLEWVSAISGDGYTTVYADSVKGRFTISRDNAKKTVYLQMNSLKAEDTAVYYCNAFRTDIVREYWGQGTQVTVSS
notes: also called CoVHH-N2 (His-tagged)
Turning to B2, in experiment [3], binding was characterised by a dissociation constant (Kd) of 2.09 nM, the koff turned out to be 0.0009 s⁻¹ and the kon came out at 430000 M⁻¹ s⁻¹.
